Target: soluble recombinant cynomolgus TCR alpha/beta-zipper protein (cynomolgus/rhesus monkey)
Test: ELISA, 2 µg/mL coated soluble recombinant cynomolgus TCR α/β-zipper protein, OD 450 nm

Sequence of soluble recombinant cynomolgus TCR alpha/beta-zipper protein (cynomolgus/rhesus monkey) (TCR alpha, as listed by the source, chain 1 of 2): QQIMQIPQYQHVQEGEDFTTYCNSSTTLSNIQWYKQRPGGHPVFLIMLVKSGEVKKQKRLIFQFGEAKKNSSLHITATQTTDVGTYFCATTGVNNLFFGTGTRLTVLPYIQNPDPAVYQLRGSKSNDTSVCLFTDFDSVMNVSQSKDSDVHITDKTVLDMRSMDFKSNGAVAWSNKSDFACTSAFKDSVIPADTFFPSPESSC
Sequence of soluble recombinant cynomolgus TCR alpha/beta-zipper protein (cynomolgus/rhesus monkey) (TCR beta, as listed by the source, chain 2 of 2): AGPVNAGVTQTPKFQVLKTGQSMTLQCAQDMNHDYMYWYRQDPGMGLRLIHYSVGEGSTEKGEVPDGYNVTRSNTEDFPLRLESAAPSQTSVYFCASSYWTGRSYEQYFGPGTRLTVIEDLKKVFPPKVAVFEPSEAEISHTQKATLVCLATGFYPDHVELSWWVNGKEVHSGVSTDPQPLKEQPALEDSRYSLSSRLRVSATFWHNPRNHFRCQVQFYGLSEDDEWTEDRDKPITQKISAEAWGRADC

“anti-non-human primate/Rat TCRα/β antibody clone R73” gave an EC50 (read off the curve) of 0.1 nM.
